{"source": "paper PMC10095097", "biological_target": "NTR 2.0 (engineered nitroreductase; Vibrio vulnificus NfsB F70A/F108Y) (Vibrio vulnificus (CMCP6))", "assay": "crystal structure; hanging-drop vapour diffusion at 291 K; protein 10 mg/mL in 40 mM Tris-HCl pH 7.0, 200 mM NaCl; precipitant 0.1 M sodium acetate trihydrate pH 4.5, 32% (v/v) PEG 300; two molecules in the asymmetric unit; FMN and acetate bound", "data": [{"substance": "NTR 2.0 (engineered nitroreductase; Vibrio vulnificus NfsB F70A/F108Y) (enzyme)", "values": [{"measurement": "stoichiometry N", "result": 2}]}]}
